Experiments:
Experiment in all cases: EMSA
[1] = biological target: NS1 (89-237) effector domain (Influenza A virus (H3N2), UniProt P03495 89-237)
[2] = biological target: eIF4E;eIF4G1 (88-653) (human;human, UniProt P06730;Q04637 1-217;88-653, |)
[3] = biological target: NS1 (89-237) effector domain;eIF4E;eIF4G1 (88-653) (Influenza A virus (H3N2);human;human, UniProt P03495;P06730;Q04637 89-237;1-217;88-653, ||)
NS1 (89-237) effector domain;eIF4E;eIF4G1 (88-653), sequence (P03495 89-237, chain 1 of 3): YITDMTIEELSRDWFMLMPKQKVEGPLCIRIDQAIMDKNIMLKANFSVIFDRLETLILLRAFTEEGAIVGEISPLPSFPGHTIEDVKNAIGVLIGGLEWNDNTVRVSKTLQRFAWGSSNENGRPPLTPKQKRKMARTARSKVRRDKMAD
NS1 (89-237) effector domain;eIF4E;eIF4G1 (88-653), sequence (P06730 whole entry, chain 2 of 3, the tested form may be a part): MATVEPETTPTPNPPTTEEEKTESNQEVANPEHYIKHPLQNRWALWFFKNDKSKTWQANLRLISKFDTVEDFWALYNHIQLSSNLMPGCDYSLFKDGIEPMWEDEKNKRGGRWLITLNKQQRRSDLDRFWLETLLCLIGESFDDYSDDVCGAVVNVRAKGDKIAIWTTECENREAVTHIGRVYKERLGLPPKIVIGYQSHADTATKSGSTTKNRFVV
NS1 (89-237) effector domain;eIF4E;eIF4G1 (88-653), sequence (Q04637 88-653, chain 3 of 3): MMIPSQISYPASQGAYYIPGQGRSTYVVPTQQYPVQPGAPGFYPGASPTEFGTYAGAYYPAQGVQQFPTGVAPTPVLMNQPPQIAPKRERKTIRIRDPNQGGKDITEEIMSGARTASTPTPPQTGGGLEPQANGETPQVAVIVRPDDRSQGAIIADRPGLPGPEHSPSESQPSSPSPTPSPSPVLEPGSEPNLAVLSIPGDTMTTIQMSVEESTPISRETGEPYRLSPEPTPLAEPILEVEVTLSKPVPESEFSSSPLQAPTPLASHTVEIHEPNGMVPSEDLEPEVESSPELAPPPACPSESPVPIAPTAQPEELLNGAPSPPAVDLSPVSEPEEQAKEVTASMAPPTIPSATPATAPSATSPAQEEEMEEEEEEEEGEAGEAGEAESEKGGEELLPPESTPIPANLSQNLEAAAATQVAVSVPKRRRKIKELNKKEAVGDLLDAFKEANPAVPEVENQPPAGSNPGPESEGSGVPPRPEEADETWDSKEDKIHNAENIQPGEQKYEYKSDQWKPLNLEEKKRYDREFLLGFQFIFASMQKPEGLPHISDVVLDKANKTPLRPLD

NS1 (89-237) effector domain, sequence (P03495 89-237): as the sequence (P03495 89-237, chain 1 of 3) above
eIF4E;eIF4G1 (88-653), sequence (P06730 whole entry, chain 1 of 2, the tested form may be a part): as the sequence (P06730 whole entry, chain 2 of 3, the tested form may be a part) above
eIF4E;eIF4G1 (88-653), sequence (Q04637 88-653, chain 2 of 2): as the sequence (Q04637 88-653, chain 3 of 3) above

B1: 5'-m7G-mRNA (ssRNA)
RNA: GGGUGACAGUCCUGUUU
modifications: 5' m7G cap (vaccinia capping)
Q: Does B1 bind [1]?
A: Result: no binding

Q: Does B1 bind [2]?
A: Result: binds

Q: Does B1 bind [3]?
A: Result: binds
